Several values for one entry are separate records, joined by “and”; a condition that tells them apart may be missing. Equal entries are not always repeated. One block for each molecule: values may come before it.
B1: noncollagenous C-terminal domain (NC1) of the collagen IV α5 chain, recombinant (domain or fragment, human)
chain: SVAHGFLITRHSQTTDAPQCPQGTLQVYEGFSLLYVQGNKRAHGQDLGTAGSCLRRFSTMPFMFCNINNVCNFASRNDYSYWLSTPEPMPMSMQPLKGQSIQPFISRCAVCEAPAVVIAVHSQTIQIPHCPQGWDSLWIGYSFMMHTSAGAEGSGQALASPGSCLEEFRSAPFIECHGRGTCNYYANSYSFWLATVDVSDMFSKPQSETLKAGDLRTRISRCQVCMKRT
notes: collagen IV α5 chain, human, NC1 domain; The construct has an N-terminal BM40 secretion peptide followed by the FLAG tag; also called α5NC1; α5(IV)NC1
B2: noncollagenous C-terminal domain (NC1) of the collagen IV α2 chain, recombinant, from insect cells (domain or fragment, human)
chain: SVSIGYLLVKHSQTDQEPMCPVGMNKLWSGYSLLYFEGQEKAHNQDLGLAGSCLARFSTMPFLYCNPGDVCYYASRNDKSYWLSTTAPLPMMPVAEDEIKPYISRCSVCEAPAIAIAVHSQDVSIPHCPAGWRSLWIGYSFLMHTAAGDEGGGQSLVSPGSCLEDFRATPFIECNGGRGTCHYYANKYSFWLTTIPEQSFQGSPSADTLKAGLIRTHISRCQVCMKNL
notes: collagen IV α2 chain, human, NC1 domain; The construct has an N-terminal BM40 secretion peptide followed by the FLAG tag; Used for the α121NC1 crystals (expressed in insect cells); also called α2NC1; α2(IV)NC1
B3: noncollagenous C-terminal domain (NC1) of the collagen IV α2 chain, recombinant, from HEK293 cells (domain or fragment, human)
chain: B2 chain
notes: collagen IV α2 chain, human, NC1 domain; N-terminally FLAG-tagged fusion protein; Used for the α2NC1 crystals; also called α2NC1; α2NC1_(homo); source: HEK293 cells, purified as described elsewhere (Sado et al., 1998)
B4: noncollagenous C-terminal domain (NC1) of the collagen IV α1 chain, recombinant (domain or fragment, human)
chain: SVDHGFLVTRHSQTIDDPQCPSGTKILYHGYSLLYVQGNERAHGQDLGTAGSCLRKFSTMPFLFCNINNVCNFASRNDYSYWLSTPEPMPMSMAPITGENIRPFISRCAVCEAPAMVMAVHSQTIQIPPCPSGWSSLWIGYSFVMHTSAGAEGSGQALASPGSCLEEFRSAPFIECHGRGTCNYYANAYSFWLATIERSEMFKKPTPSTLKAGELRTHVSRCQVCMRRT
notes: collagen IV α1 chain, human, NC1 domain (about 230 C-terminal residues); The construct has an N-terminal BM40 secretion peptide followed by the FLAG tag; also called α1NC1; α1(IV)NC1

Key:
[1] = target: noncollagenous C-terminal domain (NC1) of the collagen IV α4 chain, recombinant (human) (UniProt P53420); assay: crystal structure; α4NC1 alone; sitting drop, 21°C; protein in 50 mM Tris-HCl pH 7.4, 0.15 M NaCl; 6% PEG 3350, 0.2 M Na acetate, 0.1 M MES pH 6.5
[2] = target: noncollagenous C-terminal domain (NC1) of the collagen IV α3 chain, recombinant (human) (UniProt Q01955); assay: crystal structure; α3NC1 alone; sitting drop, 21°C; protein in 50 mM Tris-HCl pH 7.4, 0.5 M NaCl; 16% PEG 3350, 0.2 M MgCl2, 0.1 M bis-tris propane pH 7.5
[3] = target: noncollagenous C-terminal domain (NC1) of the collagen IV α3 chain, recombinant (human) (UniProt Q01955); assay: SPR; Biacore T100; α3NC1 or α5NC1 amine-coupled to CM5 chip (~1000 RU); α3NC1 or α5NC1 flowed over; 25°C; 10 mM Tris-HCl pH 7.4, 0.15 M NaCl, 3 mM EDTA, 0.005% surfactant P20; self-association
[4] = target: the molecule itself; assay: crystal structure; crystals from a 1:1:1 mixture of α3NC1, α4NC1 and α5NC1; sitting drop, 21°C; protein in 50 mM Tris-HCl pH 7.4, 0.15 M NaCl; 20% PEG 8000, 0.2 M NaCl, 0.1 M CAPS pH 10.5
[5] = target: the molecule itself; assay: SPR; Biacore T100; α3NC1 or α5NC1 amine-coupled to CM5 chip (~1000 RU); α3NC1 or α5NC1 flowed over; 25°C; 10 mM Tris-HCl pH 7.4, 0.15 M NaCl, 3 mM EDTA, 0.005% surfactant P20; self-association
[6] = target: B4; assay: crystal structure; 2:1 mixture (in terms of mass) of α1NC1 and α2NC1; sitting drop, 21°C; protein in 50 mM Tris-HCl pH 7.4, 0.15 M NaCl; 10% PEG 8000, 0.2 M Mg acetate; conditions: both partners purified
[7] = target: the molecule itself; assay: crystal structure; α2NC1 (from HEK293 cells) alone; sitting drop, 21°C; protein in 50 mM Tris-HCl pH 7.4, 0.15 M NaCl; 22% polyvinylpyrrolidone K15, 0.1 M Na2SO4, 0.1 M MES pH 6.5
[8] = target: the molecule itself; assay: crystal structure; α1NC1 alone; sitting drop, 21°C; protein in 50 mM Tris-HCl pH 7.4, 0.15 M NaCl; 1.4 M Li2SO4, 0.1 M MES pH 6.5
[9] = target: B2; assay: crystal structure; 2:1 mixture (in terms of mass) of α1NC1 and α2NC1; sitting drop, 21°C; protein in 50 mM Tris-HCl pH 7.4, 0.15 M NaCl; 10% PEG 8000, 0.2 M Mg acetate; conditions: both partners purified

stoichiometry N [1]: 12 subunits
Molecule: noncollagenous C-terminal domain (NC1) of the collagen IV α4 chain, recombinant (from UniProt P53420 1461-1690) (domain or fragment)

stoichiometry N [2]: 6 subunits | Kd [3]: 1.71 µM
Molecule: noncollagenous C-terminal domain (NC1) of the collagen IV α3 chain, recombinant (from UniProt Q01955 1441-1670) (domain or fragment)

Molecule: B1
stoichiometry N [4]: 6 subunits | Kd [5]: 4.92 µM

Molecule: B2
binding result [6]: binds

Molecule: B3
stoichiometry N [7]: 8 subunits and 4 subunits

Molecule: B4
stoichiometry N [8]: 6 subunits | stoichiometry N [9]: 2 α1NC1 per α2NC1

Source: article PMC6211539, “Structures of collagen IV globular domains: insight into associated pathologies, folding and network assembly” (IUCrJ, 2018)
